Assay [1] concerns the target TMH-iLID membrane anchor (transmembrane helix of E. coli TatA, Val-Leu, Flag peptide, iLID) (Escherichia coli).
The target in assay [2] is TMH-LOV2 V416L membrane anchor (Escherichia coli | Avena sativa).
The target is the same in assay [3]. The source holds these as a separate data set.

Here are results for two substances from PMC7221075.

Consider SspB_Nano-SctQ bait fusion protein, for which, in assay [1], the light/dark secretion ratio (L/D ratio) of native T3SS substrates, in vitro secretion assay, LITESEC-supp2 (anchor from pACYC184) was determined as 0.26.
In turn, Zdk1-SctQ bait fusion protein came in with a secretion efficiency of heterologous cargo expressed from plasmid (YopE1-53-NanoLuc-FLAG), LITESEC-act3, in light in assay [2] of 50%. Moreover, in assay [3], the light/dark secretion ratio (L/D ratio) of native T3SS substrates, in vitro secretion assay, LITESEC-act2 (anchor from pBAD) came out at 2.16 and the light/dark secretion ratio (L/D ratio) of native T3SS substrates, in vitro secretion assay, LITESEC-act3 (anchor from pACYC184) is 4.18.
